# Data: US11739318B1, “Modified biosensors and biocatalysts and methods of use” (priority 2017, dated 2023)
# B1: CatM_C2.9: CatM variant V97I, G127A, T128A, L147V with weaker ccMA sensitivity, SEQ ID NO: 25 (protein)
# chain: MELRHLRYFVTVVEEQSISKAAEKLCIAQPPLSRQIQKLEEELGIQLFERGFRPAKVTEAGMFFYQHAVQILTHTAQASSMAKRIATVSQTLRIGYISSLLYGLLPEIIYLFRQQNPEIHIELIECAAKDQINALKQGKIDLGFGRVKITDPAIRRIVLHKEQLKLAIHKHHHLNQFAATGVHLSQIIDEPMLLYPVSQKPNFATFIQSLFTELGLVPSKLTEIREIQLALGLVAAGEGVCIVPASAMDIGVKNLLYIPILDDDAYSPISLAVRNMDHSNYIPKILACVQEVFATHHIRPLIE
# modifications: CatM_C2.9
# B2: L69V: PON1 individual point mutation L69V from the literature (protein, UniProt P27169 2-355, looked up, variant L69V)
# Serum …: AKLIALTLLGMGLALFRNHQSSYQTRLNALREVQPVELPNCNLVKGIETGSEDLEILPNGLAFISSGVKYPGIKSFNPNSPGKILLMDLNEEDPTVLELGITGSKFDVSSFNPHGISTFTDEDNAMYLLVVNHPDAKSTVELFKFQEEEKSLLHLKTIRHKLLPNLNDIVAVGPEHFYGTNDHYFLDPYLQSWEMYLGLAWSYVVYYSPSEVRVVAEGFDFANGINISPDGKYVYIAELLAHKIHVYEKHANWTLTPLKSLDFNTLVDNISVDPETGDLWVGCHPNGMKIFFYDSENPPASEVLRIQNILTEEPKVTQVYAENGTVLQGSTVASVYKGKLLIGTVFHKALYCEL
# B3: Lib2-D12: PON1 clone from Lib2, H115W scaffold with F222I, F292I (protein, UniProt P27169 2-355, looked up, variant H115W F222I F292I)
# Serum …: AKLIALTLLGMGLALFRNHQSSYQTRLNALREVQPVELPNCNLVKGIETGSEDLEILPNGLAFISSGLKYPGIKSFNPNSPGKILLMDLNEEDPTVLELGITGSKFDVSSFNPWGISTFTDEDNAMYLLVVNHPDAKSTVELFKFQEEEKSLLHLKTIRHKLLPNLNDIVAVGPEHFYGTNDHYFLDPYLQSWEMYLGLAWSYVVYYSPSEVRVVAEGFDIANGINISPDGKYVYIAELLAHKIHVYEKHANWTLTPLKSLDFNTLVDNISVDPETGDLWVGCHPNGMKIIFYDSENPPASEVLRIQNILTEEPKVTQVYAENGTVLQGSTVASVYKGKLLIGTVFHKALYCEL
# B4: V346A: published PON1 variant with mutation V346A (protein, UniProt P27169 2-355, looked up, variant V346A)
# Serum …: AKLIALTLLGMGLALFRNHQSSYQTRLNALREVQPVELPNCNLVKGIETGSEDLEILPNGLAFISSGLKYPGIKSFNPNSPGKILLMDLNEEDPTVLELGITGSKFDVSSFNPHGISTFTDEDNAMYLLVVNHPDAKSTVELFKFQEEEKSLLHLKTIRHKLLPNLNDIVAVGPEHFYGTNDHYFLDPYLQSWEMYLGLAWSYVVYYSPSEVRVVAEGFDFANGINISPDGKYVYIAELLAHKIHVYEKHANWTLTPLKSLDFNTLVDNISVDPETGDLWVGCHPNGMKIFFYDSENPPASEVLRIQNILTEEPKVTQVYAENGTVLQGSTVASVYKGKLLIGTAFHKALYCEL
# B5: Lib1-C3.3: top PON1 variant (H115W, L69V, K70Q, Y71L, G73A) (protein, UniProt P27169 2-355, looked up, variant H115W L69V K70Q Y71L G73A)
# Serum …: AKLIALTLLGMGLALFRNHQSSYQTRLNALREVQPVELPNCNLVKGIETGSEDLEILPNGLAFISSGVQLPAIKSFNPNSPGKILLMDLNEEDPTVLELGITGSKFDVSSFNPWGISTFTDEDNAMYLLVVNHPDAKSTVELFKFQEEEKSLLHLKTIRHKLLPNLNDIVAVGPEHFYGTNDHYFLDPYLQSWEMYLGLAWSYVVYYSPSEVRVVAEGFDFANGINISPDGKYVYIAELLAHKIHVYEKHANWTLTPLKSLDFNTLVDNISVDPETGDLWVGCHPNGMKIFFYDSENPPASEVLRIQNILTEEPKVTQVYAENGTVLQGSTVASVYKGKLLIGTVFHKALYCEL
# B6: CatM_A9: CatM regulated promoter variant for reduced signal output, SEQ ID NO: 23 (nucleic acid)
# DNA: TTATACGCCCTAATTGGTTTTATATACCTTTTTAGTATGCAAAAATACCAAATTGGTGTGGATTTTTATTATTACATTAATTTACAGTATGTAAATAGTATTTATTGAAAAGAAGATGGACCG
# modifications: listed as DNA, chemistry not fully specified
# Legend:
# ccMA = assay: Intracellular ccMA sensing with CatM sensor in strain CJ184, flow cytometry; assay type: cell-based, P. putida
# Description: FIG. 14A represents the Acinetobacter baylyi CatM promoter region used for selection of ccMA sensing in P. putida KT2440. The regions that were partially diversified or completely randomized are marked ‘red’ and the mutations pursued are labeled. For example −10 and −35 sites were partially randomized for saturation, the ribosome binding site (RBS) was made compatible to the consensus sequence AAGGAG followed by eight bases to the start codon “ATG” of the reporter. Overall the library diversity was expected to be well above 60,000. Using a method similar to what has been described in Example 1-3, catM gene, diversified regulatory region, and sfgfp were inserted into the pBTL2 backbone. The completed circular plasmids, carrying Kanamycin resistance marker, were then transformed into electrocompetent cells of P. putida strain CJ184. The transformation gave well above 60,000 colonies to cover the library adequately. […] Post 16 h of growth at 30° C., the samples were analyzed on a flow cytometer (BD FACSAria III). […] Post third round of sorted population, a fraction was plated on LB agar+Kan50 plates and a few colonies evaluated for PCA, Benzoate and Catechol response, considering CJ184 strain is capable of converting them all to final product ccMA. […]
# [1] = individual mutations, hydrolysis of OPs; cited from earlier work
# PXN = assay: Whole cell catalysis and sensing of PON1 clones at varying PXN (contrast ratio); assay type: cell-based, E. coli; conditions: scaffold PON1-H115W
# Description: (§1) FIGS. 17A-17G show evolution of PON1. […] Residue positions varied in library construction are indicated. […] The circled region is magnified (inset) for easy visualization of the bright colony. […] The contrast ratio is defined as total fluorescence of the cells in the presence of PXN over the background fluorescence of the cells in the absence of PXN. […] The product, pNP, is measured by absorbance (410 nm). Error bars are standard deviation from two independent assays with different fractions from size exclusion chromatography. […] Error bars are the standard deviation of two independent assays using elution fractions from first half and second half of the chromatogram peak from size exclusion chromatography.
# In order to efficiently screen the library, the biosensor/biocatalyst plasmid consisting of variants of PON1 was directly transferred to high transformation efficiency DH5α cells. […] The colony picking can further be made more stringent by using lower PXN (for example 100 μM) in the growth media and colonies selected based on the fluorescence intensity under an illuminator.
# The clones were further confirmed for improved activity by using clear cell lysates that were normalized for sfGFP fluorescence (the enzyme variants expressed as sfGFP-PON1 fusion by inducing the same clones with 200 μM pNP) and assayed for activity at different concentrations of PXN. […]
# [2] = PON1 expression and solubility from fluorescence of the cell lysate; set-up: species or system E. coli; conditions: based on the fluorescence of the cell lysate
# Description: The clones were further confirmed for improved activity by using clear cell lysates that were normalized for sfGFP fluorescence (the enzyme variants expressed as sfGFP-PON1 fusion by inducing the same clones with 200 μM pNP) and assayed for activity at different concentrations of PXN. […] The most notable aspect of comparison between the in vivo activity measurements (FIG. 17D) and the in vitro measurements (FIG. 17E) is the relative ranking of the different PON1 variants. While Lib1-C3.3 did show highest Vmax in both formats of experiment, the Lib2-D12 was the lowest in both cases. […] The solubility of other PON1 variants ranged between these two extreme values.
# pNP sensor = assay: Raw whole cell fluorescence with pNP sensor and sfGFP-PON1 under positive feedback regulation, flow cytometer; assay type: cell-based, E. coli; conditions: mean of duplicate cultures ± SD
# Description: FIGS. 16A-16D show ‘Catalyze’ and ‘sense’ system for hydrolysis reactions. […] UI: background fluorescence from cells without any pNP source to induce the TF; […]; pNP: TF induced by exogenously supplied pNP as a control/reference. […] Relative activity levels are distinguishable by eye.
# The technique described here (referred to in this example as “smart microbial cells” or SMC; e.g., FIGS. 1A and 1B) allows for catalysis and sensing in the same microbial cell. For a practical library application, we simplified and improved the signal to noise ratio of the biosensor. This was achieved by gene fusing the PON1 to the GFP so that the TF is also regulating the catalytic enzyme expression as well (scheme shown in FIG. 1B). This fusion is expected to have three distinct effects. First, it provides positive feedback, such that more the activity, the more PON1 is expressed, and in turn further ‘feeds’ the activity. […] Second, feedback will amplify the already present correlation between activity and GFP expression. Third, for suitably chosen GFP, the fluorescence signal conveniently reports the amount of fused PON1 present, allowing normalization for specific activity.
# . Based on the catalytic efficiency and the cytoplasmic concentration of the hydrolase, PXN hydrolysis results in a correlated pNP production inside the microbial cell that ultimately determines activation of the pNP sensor and accumulation of sfGFP in the cells. […] When pNP was used as an inducer, such that the expression of sfGFP-PON1 expression is independent of the catalytic efficiency of PON1, modest differences in cell fluorescence were still captured across the PON1 variants indicating V346A mutation could be detrimental to PON1 expression and stability (FIG. 16C, Table 6).
# [3] = Paraoxonase activity of purified PON1 variants (pNP absorbance 410 nm); assay type: biochemical; conditions: 400 μM PXN
# Description: as §1
# Finally, the gene for top PON1 variant Lib1-C3.3 (H115W, L69V, K70Q, Y71L, G73A) and the scaffold (H115W) were transferred to a pRSF-1b vector (Novagen) and expressed as a C-terminal 6×His-tagged protein. Post two-step purification using affinity column and a size exclusion chromatography, pure fractions were combined and tested for activity at varying concentrations of PXN. […]
molecule,measurement,setting,value
B1,ccMA titer for dose-response (low sensitivity),ccMA; CJ184,> 10 mM
B2,higher catalytic efficiency over the wild-type,[1],four- to sixteen and four
B3,contrast ratio higher than the scaffold,PXN,2 fold
same,protein yield compared to the scaffold,[2],50%
B4,"Raw whole cell fluorescence intensity, PXN (1.6 mM)",pNP sensor; exogenous paraoxon 1.6 mM,895 ± 39
same,"Raw whole cell fluorescence intensity, pNP (200 μM)",pNP sensor; induced with exogenous pNP 200 μM,6263 ± 57
same,"Raw whole cell fluorescence intensity, UI","pNP sensor; uninduced, no pNP source",174 ± 29
same,higher catalytic efficiency over the wild-type,[1],four- to sixteen
B5,protein yield compared to the scaffold,[2],95%
same,turnover number higher than the starting sequence,[3],approximately thirty
same,linear rate exceeding that of PON1-H115W,[3]; at ten-fold lower protein concentration,three
B6,fluorescence and dose-response,ccMA; compared with CatM_C2,weaker fluorescence but very similar dose-response as the CatM_C2
